The test system of data set [1] is HeLa Kyoto. Description: thermal stability score vs G1/S (z-score of summed log2 fold changes over temperatures); higher = more thermally stable than in G1/S.
Data set [2] concerns HeLa Kyoto. In words: melting temperature (median over replicates), in situ; higher = more thermally stable.
Data set [3] concerns HeLa Kyoto. In words: solubility change mitosis vs G1/S (difference of NP-40 vs SDS log2 ratios) (log2 ratio difference); higher = more soluble in mitosis.
Data set [4] has as its system HeLa Kyoto. In words: solubility in G1/S (NP-40 vs SDS abundance) (log2 ratio); higher = more soluble. To be noted: cell cycle stage: G1/S.
[5] abbreviates: cell cycle stage: early G1 (4.5 h after nocodazole release).
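Throughout, for melting temperature (median over replicates), in situ: HeLa Kyoto cells synchronized by double thymidine or nocodazole block, proteins quantified by TMT10plex mass spectrometry, three independent biological replicates.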
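Throughout, for solubility change mitosis vs G1/S (difference of NP-40 vs SDS log2 ratios): synchronized HeLa Kyoto cells (double thymidine block for G1/S, nocodazole release for mitosis), protein amounts in NP-40 versus SDS lysates quantified by mass spectrometry, three biological replicates.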
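Throughout, for solubility in G1/S (NP-40 vs SDS abundance): HeLa Kyoto cells arrested at G1/S by double thymidine block, proteins quantified by TMT10plex mass spectrometry in mild NP-40 versus SDS extracts, three biological replicates.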
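Throughout, for thermal stability score vs G1/S (z-score of summed log2 fold changes over temperatures): synchronized HeLa Kyoto cells, proteins quantified by TMT10plex mass spectrometry, three biological replicates, mitosis taken 0.5 h after nocodazole release, G1/S directly after double thymidine block.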

“MAAPLRIQSDWAQALRKDEGEAWLSCHPPGKPSLYGSLTCQGIGLDGIPEVTASEGFTVNEINKKSIHISCPKENASSKFLAPYTTFSRIHTKSITCLDISSRGGLGVSSSTDGTMKIWQASNGELRRVLEGHVFDVNCCRFFPSGLVVLSGGMDAQLKIWSAEDASCVVTFKGHKGGILDTAIVDRGRNVVSASRDGTARLWDCGRSACLGVLADCGSSINGVAVGAADNSINLGSPEQMPSEREVGTEAKMLLLAREDKKLQCLGLQSRQLVFLFIGSDAFNCCTFLSGFLLLAGTQDGNIYQLDVRSPRAPVQVIHRSGAPVLSLLSVRDGFIASQGDGSCFIVQQDLDYVTELTGADCDPVYKVATWEKQIYTCCRDGLVRRYQLSDL [PAAF1]”: the thermal stability score was -0.462 in data set [1] (setting [5]) and -0.84 in data set [1] (cell cycle stage: mitosis). The melting temperature in data set [2] (cell cycle stage: G1/S) was 54 °C; in data set [2] (cell cycle stage: mitosis), 53.9 °C. For the same sequence, the “solubility change mitosis (log2)” value in data set [3] was -0.218. Moreover, in data set [4], the “solubility in G1/S (log2)” value is -0.094.
“MAAPMEVAVCTDSAAPMWSCIVWELHSGANLLTYRGGQAGPRGLALLNGEYLLAAQLGKNYISAWELQRKDQLQQKIMCPGPVTCLTASPNGLYVLAGVAESIHLWEVSTGNLLVILSRHYQDVSCLQFTGDSSHFISGGKDCLVLVWSLCSVLQADPSRIPAPRHVWSHHALPITDLHCGFGGPLARVATSSLDQTVKLWEVSSGELLLSVLFDVSIMAVTMDLAEHHMFCGGSEGSIFQVDLFTWPGQRERSFHPEQDAGKVFKGHRNQVTCLSVSTDGSVLLSGSHDETVRLWDVQSKQCIRTVALKGPVTNAAILLAPVSMLSSDFRPSLPLPHFNKHLLGAEHGDEPRHGGLTLRLGLHQQGSEPSYLDRTEQLQAVLCSTMEKSVLGGQDQLRVRVTELEDEVRNLRKINRDLFDFSTRFITRPAK [WDR18]”: the thermal stability score in data set [1] (setting [5]) is -1.8; in data set [1] (cell cycle stage: mitosis) it was -5.26. Also, the results for the melting temperature in data set [2] (cell cycle stage: G1/S) and in data set [2] (cell cycle stage: mitosis) were 56.6 °C and 54.1 °C, respectively. In data set [3], the “solubility change mitosis (log2)” value amounted to 0.571. For the same sequence, the “solubility in G1/S (log2)” value in data set [4] is -1.23.
For “MAAPPGEYFSVGSQVSCRTCQEQRLQGEVVAFDYQSKMLALKCPSSSGKPNHADILLINLQYVSEVEIINDRTETPPPLASLNVSKLASKARTEKEEKLSQAYAISAGVSLEGQQLFQTIHKTIKDCKWQEKNIVVMEEVVITPPYQVENCKGKEGSALSHVRKIVEKHFRDVESQKILQRSQAQQPQKEAALSS [LSM12]”, the thermal stability score was -0.688 in data set [1] (setting [5]) and -0.784 in data set [1] (cell cycle stage: mitosis). Also, the melting temperature in data set [2] (cell cycle stage: G1/S) and in data set [2] (cell cycle stage: mitosis) was 52.3 °C in each case. Also, the “solubility change mitosis (log2)” value in data set [3] came out at 0.105. Also, the “solubility in G1/S (log2)” value in data set [4] is -0.264.
Consider “MAAPRPSPAISVSVSAPAFYAPQKKFGPVVAPKPKVNPFRPGDSEPPPAPGAQRAQMGRVGEIPPPPPEDFPLPPPPLAGDGDDAEGALGGAFPPPPPPIEESFPPAPLEEEIFPSPPPPPEEEGGPEAPIPPPPQPREKVSSIDLEIDSLSSLLDDMTKNDPFKARVSSGYVPPPVATPFSSKSSTKPAAGGTAPLPPWKSPSSSQPLPQVPAPAQSQTQFHVQPQPQPKPQVQLHVQSQTQPVSLANTQPRGPPASSPAPAPKFSPVTPKFTPVASKFSPGAPGGSGSQPNQKLGHPEALSAGTGSPQPPSFTYAQQREKPRVQEKQHPVPPPAQNQNQVRSPGAPGPLTLKEVEELEQLTQQLMQDMEHPQRQNVAVNELCGRCHQPLARAQPAVRALGQLFHIACFTCHQCAQQLQGQQFYSLEGAPYCEGCYTDTLEKCNTCGEPITDRMLRATGKAYHPHCFTCVVCARPLEGTSFIVDQANRPHCVPDYHKQYAPRCSVCSEPIMPEPGRDETVRVVALDKNFHMKCYKCEDCGKPLSIEADDNGCFPLDGHVLCRKCHTARAQT [ZYX]”, for which the thermal stability score in data set [1] (setting [5]) is -1.65; in data set [1] (cell cycle stage: mitosis) it was 0.522. In addition, the figures for the melting temperature in data set [2] (cell cycle stage: G1/S) and in data set [2] (cell cycle stage: mitosis) were 55.9 °C and 65.5 °C, respectively. For the same sequence, the “solubility change mitosis (log2)” value in data set [3] was -0.128. In data set [4], the “solubility in G1/S (log2)” value came out at 0.412.
As to “MAAPSAGSWSTFQHKELMAADRGRRILGVCGMHPHHQETLKKNRVVLAKQLLLSELLEHLLEKDIITLEMRELIQAKVGSFSQNVELLNLLPKRGPQAFDAFCEALRETKQGHLEDMLLTTLSGLQHVLPPLSCDYDLSLPFPVCESCPLYKKLRLSTDTVEHSLDNKDGPVCLQVKPCTPEFYQTHFQLAYRLQSRPRGLALVLSNVHFTGEKELEFRSGGDVDHSTLVTLFKLLGYDVHVLCDQTAQEMQEKLQNFAQLPAHRVTDSCIVALLSHGVEGAIYGVDGKLLQLQEVFQLFDNANCPSLQNKPKMFFIQACRGDETDRGVDQQDGKNHAGSPGCEESDAGKEKLPKMRLPTRSDMICGYACLKGTAAMRNTKRGSWYIEALAQVFSERACDMHVADMLVKVNALIKDREGYAPGTEFHRCKEMSEYCSTLCRHLYLFPGHPPT [CASP2]”, the thermal stability score turned out to be 0.766 in data set [1] (setting [5]) and 3.33 in data set [1] (cell cycle stage: mitosis). In addition, the figures for the melting temperature in data set [2] (cell cycle stage: G1/S) and in data set [2] (cell cycle stage: mitosis) were 50.2 °C and 51.5 °C, respectively. In addition, the “solubility change mitosis (log2)” value in data set [3] was -0.0504. In data set [4], the “solubility in G1/S (log2)” value was 0.0545.
Consider “MAAPSPSGGGGSGGGSGSGTPGPVGSPAPGHPAVSSMQGKRKALKLNFANPPFKSTARFTLNPNPTGVQNPHIERLRTHSIESSGKLKISPEQHWDFTAEDLKDLGEIGRGAYGSVNKMVHKPSGQIMAVKRIRSTVDEKEQKQLLMDLDVVMRSSDCPYIVQFYGALFREGDCWICMELMSTSFDKFYKYVYSVLDDVIPEEILGKITLATVKALNHLKENLKIIHRDIKPSNILLDRSGNIKLCDFGISGQLVDSIAKTRDAGCRPYMAPERIDPSASRQGYDVRSDVWSLGITLYELATGRFPYPKWNSVFDQLTQVVKGDPPQLSNSEEREFSPSFINFVNLCLTKDESKRPKYKELLKHPFILMYEERAVEVACYVCKILDQMPATPSSPMYVD [MAP2K4]”, for which the results for the thermal stability score in data set [1] (setting [5]) and in data set [1] (cell cycle stage: mitosis) were 0.539 and 0.431, respectively. Also, the melting temperature in data set [2] (cell cycle stage: G1/S) worked out at 50.7 °C; in data set [2] (cell cycle stage: mitosis), 51.5 °C. For the same sequence, in data set [3], the “solubility change mitosis (log2)” value worked out at 0.0151. Besides, the “solubility in G1/S (log2)” value in data set [4] is 0.456.
In the case of “MAAPVDLELKKAFTELQAKVIDTQQKVKLADIQIEQLNRTKKHAHLTDTEIMTLVDETNMYEGVGRMFILQSKEAIHSQLLEKQKIAEEKIKELEQKKSYLERSVKEAEDNIREMLMARRAQ [PFDN1]”, the thermal stability score was -5.42 in data set [1] (setting [5]) and -7.79 in data set [1] (cell cycle stage: mitosis). Also, the results for the melting temperature in data set [2] (cell cycle stage: G1/S) and in data set [2] (cell cycle stage: mitosis) were 52.9 °C and 52.4 °C, respectively. In addition, in data set [3], the “solubility change mitosis (log2)” value was found to be 0.291. The “solubility in G1/S (log2)” value in data set [4] was determined as 0.242.

For the origin of these results see the supplement of paper PMC5998384.
